Laboratory results reported in article doi:10.1101/2021.01.13.426390.

Experiments:
[1] = molecular target: T1, His6-AGR2, purified recombinant, O95994; assay: non-reducing SDS-PAGE and immunoblot of disulfide-bonded complexes; conditions: remark: other sources report otherwise
T1 chain: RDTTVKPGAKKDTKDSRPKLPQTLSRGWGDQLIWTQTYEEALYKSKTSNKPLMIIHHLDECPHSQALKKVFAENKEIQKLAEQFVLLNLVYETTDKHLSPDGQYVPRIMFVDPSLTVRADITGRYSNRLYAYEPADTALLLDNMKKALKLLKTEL

[2] = molecular target: T2, wild type AGR2, enforced expression, O95994; assay: as above; conditions: remark: other sources report otherwise
T2 chain: T1 chain

B1: His6-AGR2, purified recombinant, O95994 21-175 (natural protein)
chain: T1 chain
B1 was tested, and the stoichiometry N [1] was 2.

B2: wild type AGR2, enforced expression, O95994 21-175 (natural protein)
chain: T1 chain
With B2 the stoichiometry N [2] was 2.
